These results are taken from patent US20230265151A1, “GIP/GLP1 CO-AGONIST COMPOUNDS” (priority 2020, published 2023).

Numbering of substitutions follows the chain as printed. *1 amine or outer side, *2 acyl side, *3 side chain or, on linkers, in order; H or OH if unused. Where no end group is shown, it is not given here. Side-chain parts run from the residue outwards. [ ]: non-standard residue; d: D form. The star is where a group is joined. αMePhe(2-F) = C[C@](N)(Cc1ccccc1F)C(=O)O; γGlu = O=C(O)[C@H](CCC(=O)[*:2])N[*:1]; C14 diacid = O=C(O)CCCCCCCCCCCCC(=O)*; αMeY = C[C@](N)(Cc1ccc(O)cc1)C(=O)O; αMeL = CC(C)C[C@](C)(N)C(=O)O; Orn = NCCC[C@H](N)C(=O)O; Dap = NC[C@H](N)C(=O)O; AEEA = NCCOCCOCC(=O)O; Aib = CC(C)(N)C(=O)O

First the molecules themselves.
T1: human GIP receptor (human, UniProt P48546 22-466)
T1 sequence (looked up): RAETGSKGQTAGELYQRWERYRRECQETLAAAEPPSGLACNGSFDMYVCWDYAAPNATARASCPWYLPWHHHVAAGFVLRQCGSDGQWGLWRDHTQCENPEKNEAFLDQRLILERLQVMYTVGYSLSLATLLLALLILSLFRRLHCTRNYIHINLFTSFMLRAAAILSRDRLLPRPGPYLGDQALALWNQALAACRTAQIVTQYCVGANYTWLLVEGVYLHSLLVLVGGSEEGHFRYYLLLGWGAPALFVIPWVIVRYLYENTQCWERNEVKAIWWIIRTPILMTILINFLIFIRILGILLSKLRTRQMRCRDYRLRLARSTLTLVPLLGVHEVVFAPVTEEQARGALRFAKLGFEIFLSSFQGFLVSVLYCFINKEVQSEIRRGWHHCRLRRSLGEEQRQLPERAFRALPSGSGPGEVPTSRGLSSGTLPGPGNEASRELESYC

B1: Y-Aib-EGT-αMeF-TSD-αMeF-SI-αMeL-LD-Orn-K((2-[2-(2-Amino-ethoxy)-ethoxy]-acetyl)2-(γ-Glu)-CO-(CH2)12-CO2H)AQ-Aib-EFI-(D-Glu)-αMeY-LIEGGK((2-[2-(2-Amino-ethoxy)-e … (peptide)
peptide: YXEGTXTSDXSIXLDXKAQXEFIXXLIEGGKSSGAPPPS
modifications: Aib2, αMeF6, αMeF10, αMeL13, Orn16, Aib20, D-Glu24, αMeY25; acylated K17, K31 (groups as in name); C-terminal amide
B2: Y-Aib-EGT-αMeF(2F)-TSDY-aMeS-I-αMeL-LD-Orn-K((2-[2-(2-Amino-ethoxy)-ethoxy]-acetyl)2-(γ-Glu)-CO-(CH2)12-CO2H)AQ-Aib-EFI-(D-Glu)-αMeY-LIEGGK((2-[2-(2-Amino-ethox … (peptide)
peptide: B1 peptide with X10Y, S11X
modifications: Aib2, αMeF(2F)6, αMeS11, αMeL13, Orn16, Aib20, D-Glu24, αMeY25; acylated K17, K31 (groups as in name); C-terminal amide
B3: Y-Aib-EGT-αMeF(2F)-TSDY-Aib-I-αMeL-LD-Orn-K((2-[2-(2-Amino-ethoxy)-ethoxy]-acetyl)2-(γ-Glu)-CO-(CH2)12-CO2H)AQ-Aib-EFI-(D-Glu)-αMeY-LIEGGK((2-[2-(2-Amino-ethoxy … (peptide)
peptide: B1 peptide with X10Y, S11X
modifications: Aib2, αMeF(2F)6, Aib11, αMeL13, Orn16, Aib20, D-Glu24, αMeY25; acylated K17, K31 (groups as in name); C-terminal amide
B4: Y-Aib-EGT-αMeF(2F)-TSD-Bip-SI-αMeL-LD-Orn-K((2-[2-(2-Amino-ethoxy)-ethoxy]-acetyl)2-(γ-Glu)-CO-(CH2)12-CO2H)AQ-Aib-EFI-(D-Glu)-αMeY-LIEGGK((2-[2-(2-Amino-ethoxy … (peptide)
peptide: B1 peptide
modifications: Aib2, αMeF(2F)6, Bip10, αMeL13, Orn16, Aib20, D-Glu24, αMeY25; acylated K17, K31 (groups as in name); C-terminal amide
B5: Y-Aib-EGT-αMeF(2F)-TSD-Nle-SI-αMeL-LD-Orn-K((2-[2-(2-Amino-ethoxy)-ethoxy]-acetyl)2-(γ-Glu)-CO-(CH2)12-CO2H)AQ-Aib-EFI-(D-Glu)-αMeY-LIEGGK((2-[2-(2-Amino-ethoxy … (peptide)
peptide: B1 peptide
modifications: Aib2, αMeF(2F)6, Nle10, αMeL13, Orn16, Aib20, D-Glu24, αMeY25; acylated K17, K31 (groups as in name); C-terminal amide
B6: Y-Aib-EGT-αMeF(2F)-TSD-Ac5c-SI-αMeL-LD-Orn-K((2-[2-(2-Amino-ethoxy)-ethoxy]-acetyl)2-(γ-Glu)-CO-(CH2)12-CO2H)AQ-Aib-EFI-(D-Glu)-αMeY-LIEGGK((2-[2-(2-Amino-ethox … (peptide)
peptide: B1 peptide
modifications: Aib2, αMeF(2F)6, Ac5c10, αMeL13, Orn16, Aib20, D-Glu24, αMeY25; acylated K17, K31 (groups as in name); C-terminal amide
B7: Y-Aib-EGT-αMeF(2F)-TSD-αMeL-SI-aMeL-LD-Orn-K((2-[2-(2-Amino-ethoxy)-ethoxy]-acetyl)2-(γ-Glu)-CO-(CH2)12-CO2H)AQ-Aib-EFI-(D-Glu)-αMeY-LIEGGK((2-[2-(2-Amino-ethox … (peptide)
peptide: B1 peptide
modifications: Aib2, αMeF(2F)6, αMeL10, αMeL13, Orn16, Aib20, D-Glu24, αMeY25; acylated K17, K31 (groups as in name); C-terminal amide
B8: Y-Aib-EGT-αMeF-TSD-4Pal-SI-αMeF-LD-Orn-K((2-[2-(2-Amino-ethoxy)-ethoxy]-acetyl)2-(γ-Glu)-CO-(CH2)12-CO2H)AQ-Aib-EFI-(D-Glu)-αMeY-LIEGGK((2-[2-(2-Amino-ethoxy)-e … (peptide)
peptide: B1 peptide
modifications: Aib2, αMeF6, 4Pal10, αMeF13, Orn16, Aib20, D-Glu24, αMeY25; acylated K17, K31 (groups as in name); C-terminal amide
B9: Y-Aib-EGT-αMeF(2F)-TSD-hTyr-SI-αMeL-LD-Orn-K((2-[2-(2-Amino-ethoxy)-ethoxy]-acetyl)2-(γ-Glu)-CO-(CH2)12-CO2H)AQ-Aib-EFI-(D-Glu)-αMeY-LIEGGK((2-[2-(2-Amino-ethox … (peptide)
peptide: B1 peptide
modifications: Aib2, αMeF(2F)6, hTyr10, αMeL13, Orn16, Aib20, D-Glu24, αMeY25; acylated K17, K31 (groups as in name); C-terminal amide
B10: Y-Aib-EGT-αMeF(2F)-TSDV-Dap-I-αMeL-LD-Orn-K((2-[2-(2-Amino-ethoxy)-ethoxy]-acetyl)2-(γ-Glu)-CO-(CH2)12-CO2H)AQ-Aib-EFIe-αMeY-LIEGGK((2-[2-(2-Amino-ethoxy)-ethox … (peptide)
peptide: Y[Aib]EGT[αMePhe(2-F)]TSDV[Dap]I[αMeL]LD[Orn]K([AEEA-AEEA-γGlu-C14 diacid])AQ[Aib]EFI[dE][αMeY]LIEGGK([AEEA-AEEA-γGlu-C14 diacid])SSGAPPPS-NH2
modifications: N-terminus assumed
SMILES: CC[C@H](C)[C@H](NC(=O)[C@H](CC(C)C)NC(=O)[C@](C)(Cc1ccc(O)cc1)NC(=O)[C@@H](CCC(=O)O)NC(=O)[C@@H](NC(=O)[C@H](Cc1ccccc1)NC(=O)[C@H](CCC(=O)O)NC(=O)C(C)(C)NC(=O)[C@H](CCC(N)=O)NC(=O)[C@H](C)NC(=O)[C@H](CCCCNC(=O)COCCOCCNC(=O)COCCOCCNC(=O)CC[C@H](NC(=O)CCCCCCCCCCCCC(=O)O)C(=O)O)NC(=O)[C@H](CCCN)NC(=O)[C@H](CC(=O)O)NC(=O)[C@H](CC(C)C)NC(=O)[C@](C)(CC(C)C)NC(=O)[C@@H](NC(=O)[C@H](CN)NC(=O)[C@@H](NC(=O)[C@H](CC(=O)O)NC(=O)[C@H](CO)NC(=O)[C@@H](NC(=O)[C@](C)(Cc1ccccc1F)NC(=O)[C@@H](NC(=O)CNC(=O)[C@H](CCC(=O)O)NC(=O)C(C)(C)NC(=O)[C@@H](N)Cc1ccc(O)cc1)[C@@H](C)O)[C@@H](C)O)C(C)C)[C@@H](C)CC)[C@@H](C)CC)C(=O)N[C@@H](CCC(=O)O)C(=O)NCC(=O)NCC(=O)N[C@@H](CCCCNC(=O)COCCOCCNC(=O)COCCOCCNC(=O)CC[C@H](NC(=O)CCCCCCCCCCCCC(=O)O)C(=O)O)C(=O)N[C@@H](CO)C(=O)N[C@@H](CO)C(=O)NCC(=O)N[C@@H](C)C(=O)N1CCC[C@H]1C(=O)N1CCC[C@H]1C(=O)N1CCC[C@H]1C(=O)N[C@@H](CO)C(N)=O

The target of one test is T1, human GIP receptor. The experiment in a line: cell-based or functional assay.
Take B1: the “cAMP EC50 (1.0% HSA)” value amounted to 13.7 nM and the “cAMP Emax (1.0% HSA)” value was 72.5%.

With B2, the “cAMP EC50 (1.0% HSA)” value is 1.51 nM and the “cAMP Emax (1.0% HSA)” value is 92.4%.

Turning to B3, the “cAMP EC50 (1.0% HSA)” value was 1.81 nM and the “cAMP Emax (1.0% HSA)” value turned out to be 91.4%.

For B4, the “cAMP EC50 (1.0% HSA)” value was 6.62 nM.

As for B5, the “cAMP EC50 (1.0% HSA)” value was 1.2 nM.

For the molecule B6, the “cAMP EC50 (1.0% HSA)” value is 3.53 nM.

Take B7: the “cAMP EC50 (1.0% HSA)” value came to 15.8 nM.

Regarding B8, the “cAMP EC50 (1.0% HSA)” value was determined as 12.8 nM and the “cAMP Emax (1.0% HSA)” value is 73.3%.

With B9, the “cAMP EC50 (1.0% HSA)” value turned out to be 1.52 nM.

For B10, the “cAMP EC50 (1.0% HSA)” value came out at 13.2 nM and the “cAMP Emax (1.0% HSA)” value came to 80.5%.

The target in another test is human GLP-1 receptor (human, UniProt P43220 24-463). The experiment in a line: cell-based or functional assay.
Consider B1, for which the “cAMP EC50 (1.0% HSA)” value is 387 nM.

For B2, the “cAMP EC50 (1.0% HSA)” value came to 20.1 nM.

B3: the “cAMP EC50 (1.0% HSA)” value turned out to be 27.8 nM.

On to B4, for which the “cAMP EC50 (1.0% HSA)” value was 70.5 nM.

Regarding B5, the “cAMP EC50 (1.0% HSA)” value was found to be 28.5 nM.

Regarding B6, the “cAMP EC50 (1.0% HSA)” value stood at 13.2 nM and the “cAMP Emax (1.0% HSA)” value was 89.3%.

In the case of B7, the “cAMP EC50 (1.0% HSA)” value was 100 nM.

B8: the “cAMP EC50 (1.0% HSA)” value came to 261 nM.

Take B9: the “cAMP EC50 (1.0% HSA)” value is 16.2 nM.

As for B10, the “cAMP EC50 (1.0% HSA)” value was determined as 25.1 nM.

The next test deals with human glucagon receptor (human, UniProt P47871 26-477). The experiment in a line: cell-based or functional assay.
For the molecule B1, the “cAMP EC50 (1.0% HSA)” value was greater than 9.95 µM.

Turning to B2, the “cAMP EC50 (1.0% HSA)” value is greater than 9.95 µM.

As to B3, the “cAMP EC50 (1.0% HSA)” value was greater than 9.95 µM.

Consider B4, for which the “cAMP EC50 (1.0% HSA)” value is greater than 9.95 µM.

In the case of B5, the “cAMP EC50 (1.0% HSA)” value is greater than 9.95 µM.

For B6, the “cAMP EC50 (1.0% HSA)” value was greater than 9.95 µM.

Regarding B7, the “cAMP EC50 (1.0% HSA)” value was greater than 9.95 µM.

With B8, the “cAMP EC50 (1.0% HSA)” value was greater than 9.95 µM.

Regarding B9, the “cAMP EC50 (1.0% HSA)” value was greater than 9.95 µM.
